Results taken from the Human Domainome abundance scans (Beltran et al. 2025).
± gives the uncertainty stated by the source.

B1: KAT8 regulatory NSL complex subunit 2, residues 28 to 91; numbered along this chain, Q9H9L4 (parent)
chain: CAFTHRPCSHPRLEGQEFCIKHILEDKNAPFKQCSYISTKNGKRCPNAAPKPEKKDGVSFCAEH

Variants of: B1
Assay: abundance fitness (aPCA) (normalised: wild type 0, dead -1); higher = more abundant; growth selection in yeast, the domain comes from the species named
Settings: Homo sapiens

Abundance fitness, by site and new letter:
I23: G -0.295 ± 0.047, V -0.124 ± 0.048, C -0.154 ± 0.069, K -0.165 ± 0.085, P -0.627 ± 0.062, F -0.404 ± 0.15, W -0.286 ± 0.049, H -0.246 ± 0.1, L -0.143 ± 0.042, T -0.178 ± 0.078, A -0.078 ± 0.068, S -0.156 ± 0.06, N -0.463 ± 0.26, Q -0.136 ± 0.085, Y -0.296 ± 0.15, M -0.204 ± 0.065, E -0.351 ± 0.1, D -0.35 ± 0.15
H10: A -0.126 ± 0.066, E -0.038 ± 0.077, F -0.076 ± 0.1, K -0.113 ± 0.08, P -1.12 ± 0.12, M -0.047 ± 0.061, R -0.064 ± 0.045, S -0.042 ± 0.061, Y -0.041 ± 0.079, G -0.01 ± 0.066, D -0.28 ± 0.18, L -0.103 ± 0.047, I -0.013 ± 0.13, C -0.015 ± 0.097, W -0.127 ± 0.068, Q -0.078 ± 0.086, V -0.149 ± 0.06, T -0.11 ± 0.056
L13: S -0.331 ± 0.067, E -0.334 ± 0.12, F -0.324 ± 0.075, D -0.501 ± 0.086, T -0.308 ± 0.082, N -0.53 ± 0.15, Q -0.176 ± 0.13, H -0.215 ± 0.088, R -0.465 ± 0.056, Y -0.277 ± 0.1, K -0.24 ± 0.18, V -0.127 ± 0.084, P -0.86 ± 0.093, W -0.315 ± 0.12, I -0.145 ± 0.13, M -0.048 ± 0.11, G -0.423 ± 0.072, C -0.365 ± 0.11, A -0.187 ± 0.057
P7: Y -0.149 ± 0.1, V -0.1 ± 0.052, W -0.148 ± 0.06, N -0.204 ± 0.21, S -0.14 ± 0.053, R -0.003 ± 0.058, Q -0.072 ± 0.062
D26: S -0.117 ± 0.058, K -0.177 ± 0.09, N -0.081 ± 0.079, R -0.175 ± 0.046, V -0.16 ± 0.068, Q -0.18 ± 0.071, M -0.195 ± 0.063, C -0.097 ± 0.08, E -0.157 ± 0.098, T -0.069 ± 0.083, F -0.245 ± 0.067, I -0.072 ± 0.14, A -0.084 ± 0.063, W -0.347 ± 0.067, G -0.197 ± 0.064, Y -0.223 ± 0.097
R12: T -0.103 ± 0.067, N -0.279 ± 0.084, P -0.147 ± 0.077, I -0.234 ± 0.096, K -0.325 ± 0.2, S -0.106 ± 0.057, F -0.77 ± 0.066, L -0.27 ± 0.06, E -0.674 ± 0.13, A -0.055 ± 0.077, M -0.47 ± 0.18, H -0.308 ± 0.066, V -0.066 ± 0.08, Q -0.561 ± 0.25, Y -0.787 ± 0.082, G -0.652 ± 0.074, D -0.93 ± 0.22, W -1.22 ± 0.19
Q16: R -0.089 ± 0.044, I -0.497 ± 0.09, M -0.146 ± 0.11, P -1.11 ± 0.11, C -0.198 ± 0.065, T -0.15 ± 0.074, Y -0.187 ± 0.17, D -0.408 ± 0.2, N -0.25 ± 0.086, S -0.091 ± 0.054, L -0.054 ± 0.053, V -0.38 ± 0.068, E -0.261 ± 0.078, W -0.226 ± 0.058, K -0.143 ± 0.1
K21: V -0.117 ± 0.051, C -0.119 ± 0.1, N -0.125 ± 0.095, H -0.005 ± 0.094, Q -0.117 ± 0.16, E -0.085 ± 0.078, A -0.057 ± 0.058, W -0.173 ± 0.062, L -0.127 ± 0.048, M -0.159 ± 0.068, S -0.125 ± 0.053, R -0.058 ± 0.054, D -0.149 ± 0.13, G -0.121 ± 0.056, T -0.157 ± 0.079, I -0.251 ± 0.13, F 0.048 ± 0.12, Y -0.227 ± 0.16, P -0.904 ± 0.085
E17: H -0.129 ± 0.098, T -0.051 ± 0.054, W -0.26 ± 0.082, V -0.102 ± 0.052, G -0.252 ± 0.073, D -0.098 ± 0.11, C -0.112 ± 0.12, I -0.036 ± 0.079, A -0.207 ± 0.07, L -0.116 ± 0.046, P -0.137 ± 0.077, K -0.15 ± 0.068, N -0.023 ± 0.15, R -0.216 ± 0.076, Y -0.106 ± 0.073, F -0.19 ± 0.091, Q -0.077 ± 0.073, S -0.105 ± 0.056, M -0.041 ± 0.075
E14: N -0.334 ± 0.18, D -0.152 ± 0.13, T -0.129 ± 0.051, A -0.107 ± 0.086, H -0.262 ± 0.16, L -0.12 ± 0.05, F -0.252 ± 0.19, C -0.168 ± 0.053, I -0.219 ± 0.1, S -0.147 ± 0.059, Q -0.155 ± 0.2, P -0.141 ± 0.067, M -0.034 ± 0.12, R -0.258 ± 0.052, W -0.396 ± 0.088, V -0.098 ± 0.054
E25: G -0.063 ± 0.064, W -0.131 ± 0.097, K -0.23 ± 0.071, A -0.132 ± 0.059, S -0.111 ± 0.053, D -0.188 ± 0.16, H 0.053 ± 0.17, R -0.099 ± 0.053, I -0.171 ± 0.089, P -0.356 ± 0.073, Y -0.05 ± 0.09, F -0.065 ± 0.083, N -0.203 ± 0.1, T -0.127 ± 0.063, M -0.092 ± 0.059, V -0.069 ± 0.053, C -0.223 ± 0.14, L -0.098 ± 0.044
I20: S -0.136 ± 0.068, Q -0.091 ± 0.08, K -0.195 ± 0.084, C -0.14 ± 0.064, Y -0.151 ± 0.078, H -0.179 ± 0.15, T -0.2 ± 0.082, N -0.328 ± 0.21, W -0.201 ± 0.064, E -0.129 ± 0.07, D -0.208 ± 0.13, L -0.057 ± 0.042, P -0.184 ± 0.072, M -0.031 ± 0.066, A -0.048 ± 0.063, G -0.104 ± 0.048, F -0.115 ± 0.074, R -0.117 ± 0.045
C19: D -0.994 ± 0.13, Q -0.878 ± 0.08, F -1.16 ± 0.37, K -0.572 ± 0.091, Y -1.38 ± 0.21, N -1.27 ± 0.12, G -0.941 ± 0.056, P -0.809 ± 0.11, W -1.28 ± 0.091, H -1.63 ± 0.37, M -1.08 ± 0.091, A -0.973 ± 0.061, T -0.908 ± 0.07, E -1 ± 0.08, S -0.851 ± 0.067, I -1.19 ± 0.069, R -1.17 ± 0.063
S9: T -0.193 ± 0.062, C -0.123 ± 0.08, D -0.121 ± 0.073, R -0.186 ± 0.047, V -0.065 ± 0.075, N -0.313 ± 0.1, Q -0.115 ± 0.062, P -0.174 ± 0.066, F 0.008 ± 0.08, H -0.119 ± 0.085, K -0.343 ± 0.068, M -0.135 ± 0.06, I 0.016 ± 0.12, E -0.191 ± 0.083, G -0.13 ± 0.051, L -0.113 ± 0.047
F18: E -0.622 ± 0.092, L -0.139 ± 0.052, Y -0.11 ± 0.084, D -0.547 ± 0.097, R -0.325 ± 0.041, Q -0.642 ± 0.12, C -0.334 ± 0.062, M -0.196 ± 0.063, S -0.59 ± 0.055, A -0.572 ± 0.064, H -0.454 ± 0.13, K -0.472 ± 0.093, G -0.563 ± 0.047, W -0.356 ± 0.073, V -0.509 ± 0.062, T -0.408 ± 0.053, I -0.678 ± 0.065, N -0.61 ± 0.1
P11: A -0.032 ± 0.066, K -0.067 ± 0.085, E -0.004 ± 0.059, M -0.092 ± 0.058, N -0.282 ± 0.1, C -0.296 ± 0.098, V -0.197 ± 0.053, W -0.555 ± 0.079, D -0.068 ± 0.12, S -0.162 ± 0.067, G -0.133 ± 0.062, L -0.18 ± 0.055, H -0.234 ± 0.092, I -0.298 ± 0.14, R -0.092 ± 0.051
H22: C -0.383 ± 0.13, D -0.904 ± 0.098, W -1.4 ± 0.2, Y -1.07 ± 0.16, F -1.81 ± 0.27, V -1.36 ± 0.059, K -0.678 ± 0.087, T -0.877 ± 0.086, G -0.789 ± 0.053, N -0.768 ± 0.12, L -1.34 ± 0.07, Q -0.506 ± 0.12, S -0.729 ± 0.061, I -1.41 ± 0.15, R -0.812 ± 0.053, M -1.16 ± 0.1, A -0.769 ± 0.053
K27: A -0.019 ± 0.089
L24: P -0.134 ± 0.1, F -0.195 ± 0.088, K -0.261 ± 0.079, G -0.098 ± 0.047, R -0.164 ± 0.054, A -0.144 ± 0.07, N -0.348 ± 0.084, E -0.234 ± 0.075, I -0.2 ± 0.078, S -0.12 ± 0.055, Q -0.147 ± 0.067, D -0.13 ± 0.071, M -0.093 ± 0.067, H -0.227 ± 0.1, Y -0.168 ± 0.085, C -0.129 ± 0.091
C8: N -0.641 ± 0.1, R -1.02 ± 0.06, P -0.874 ± 0.086, D -0.646 ± 0.085, V -0.949 ± 0.058, M -0.937 ± 0.084, E -0.711 ± 0.054, S -0.891 ± 0.059, Y -1.07 ± 0.073, L -1.31 ± 0.07, K -0.664 ± 0.079, A -0.883 ± 0.076, G -0.742 ± 0.056, W -1.24 ± 0.093, I -0.847 ± 0.09, F -1.45 ± 0.15, Q -0.832 ± 0.093, H -0.854 ± 0.085
G15: F -0.406 ± 0.1, P -0.543 ± 0.04, C -0.403 ± 0.14, N -0.134 ± 0.12, A -0.284 ± 0.064, V -0.972 ± 0.076, M -0.199 ± 0.07, H -0.263 ± 0.11, W -0.592 ± 0.091, R -0.228 ± 0.056, Q -0.134 ± 0.11, T -0.428 ± 0.089, D -0.127 ± 0.14, E -0.219 ± 0.073, Y -0.706 ± 0.3
